Key:
[1] = target: T1, soluble Endoglin (sEng), recombinant, as spiked or purified protein (human, UniProt P17813 26-586, limits assumed); experiment: sandwich ELISA: cENG10 coated at 4 ug/mL, serial dilutions of preformed equimolar Bmp9/sEng complex, bound Bmp9 detected with biotinylated anti-Bmp9 antibody and an HRP conjugate
T1 construct: sEng applied to columns (80 or 60 ng/ml), used in SEC and coated in ELISA; construct not specified there; also called spiked sEng
T1 sequence (looked up): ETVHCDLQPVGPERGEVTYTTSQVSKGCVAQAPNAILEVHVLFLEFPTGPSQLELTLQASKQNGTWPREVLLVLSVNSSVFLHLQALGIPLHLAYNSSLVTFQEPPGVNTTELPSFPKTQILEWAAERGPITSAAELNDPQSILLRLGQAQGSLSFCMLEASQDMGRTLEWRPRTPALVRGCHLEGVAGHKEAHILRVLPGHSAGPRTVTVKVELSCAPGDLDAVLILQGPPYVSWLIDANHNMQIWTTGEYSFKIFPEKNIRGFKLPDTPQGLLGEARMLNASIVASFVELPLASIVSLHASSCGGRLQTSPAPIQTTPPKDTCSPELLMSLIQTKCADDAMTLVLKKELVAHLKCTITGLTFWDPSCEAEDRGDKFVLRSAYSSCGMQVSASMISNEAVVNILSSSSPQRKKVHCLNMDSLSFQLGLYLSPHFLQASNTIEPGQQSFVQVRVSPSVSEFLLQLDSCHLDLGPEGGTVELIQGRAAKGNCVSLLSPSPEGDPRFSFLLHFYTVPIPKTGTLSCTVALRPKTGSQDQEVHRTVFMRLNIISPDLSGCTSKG
Experimental: (§1) For the ELISA experiment shown, cENG10 antibody was coated onto microplates and incubated with the analyte (a preformed Bmp9/sEng complex, Bmp9 alone, or sEng alone). Bound Bmp9 was detected using a biotinylated anti-Bmp9 antibody and a secondary, HRP-conjugated antibody, allowing for colorimetric detection of cENG10 binding to the Bmp9/sEng complex.
(§2) To test whether or not antibody cENG10 blocks binding of sEng and its ligands was assessed using a sandwich ELISA. To that end, purified human Bmp9 and sEng were mixed at equimolar ratio in PBS (final total concentration 1 μM), incubated for 30 min and serially diluted (in 1% BSA) to 0.02 to 20 nM. Control solutions containing only Bmp9 or sEng were also prepared. Antibody cENG10 (4 μg/mL) was coated onto microplate wells. After a washing step, the wells were blocked with 1% BSA. Serial dilutions of either the preformed Bmp9-sEng complex, sEng alone, or Bmp9 alone were added and the plates incubated for 90 min. After another wash step, bound Bmp9 was detected using a biotinylated anti-Bmp9 antibody and a secondary, HRP-conjugated antibody, allowing for colorimetric detection of cENG10 binding to the Bmp9/sEng complex.

[2] = target: T2, endogenous sFlt-1 in pooled serum of pre-eclampsia patients (human, UniProt P17948-2 27-687, limits assumed); experiment: 0.1 ml column, 1 mg antibody/ml beads, pooled serum of pre-eclampsia patients
T2 construct: also called sVEGFR1; soluble Flt-1 receptor
T2 sequence (P17948 other isoform, or with tags, fused parts or gaps limits assumed): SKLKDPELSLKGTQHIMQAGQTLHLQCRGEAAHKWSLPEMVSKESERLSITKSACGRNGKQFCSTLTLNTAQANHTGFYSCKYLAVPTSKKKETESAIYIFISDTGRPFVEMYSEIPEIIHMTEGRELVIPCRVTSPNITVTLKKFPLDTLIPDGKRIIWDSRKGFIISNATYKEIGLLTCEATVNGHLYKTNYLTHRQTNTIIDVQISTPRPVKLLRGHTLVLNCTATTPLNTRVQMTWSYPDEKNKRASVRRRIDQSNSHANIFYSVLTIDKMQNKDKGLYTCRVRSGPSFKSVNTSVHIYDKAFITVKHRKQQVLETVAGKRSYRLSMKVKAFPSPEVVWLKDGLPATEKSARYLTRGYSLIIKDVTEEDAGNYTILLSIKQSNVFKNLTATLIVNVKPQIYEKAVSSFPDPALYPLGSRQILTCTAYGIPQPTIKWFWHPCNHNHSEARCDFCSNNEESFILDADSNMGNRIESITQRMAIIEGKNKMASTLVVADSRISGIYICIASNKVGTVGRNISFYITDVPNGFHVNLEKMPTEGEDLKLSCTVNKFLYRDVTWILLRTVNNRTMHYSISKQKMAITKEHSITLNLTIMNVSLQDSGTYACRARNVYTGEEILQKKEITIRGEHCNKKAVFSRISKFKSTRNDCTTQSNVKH

[3] = target: T3, purified human Bmp9 (human, UniProt Q9UK05 320-429, limits assumed); experiment: sandwich ELISA: cENG10 coated at 4 ug/mL, serial dilutions of Bmp9 alone, bound Bmp9 detected with biotinylated anti-Bmp9 antibody and an HRP conjugate
T3 construct: also called Bone Morphogenetic Protein 9
T3 sequence (looked up): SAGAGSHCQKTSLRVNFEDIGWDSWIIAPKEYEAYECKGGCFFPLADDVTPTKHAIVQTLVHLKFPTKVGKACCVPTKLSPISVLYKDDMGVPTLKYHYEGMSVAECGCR
Experimental: as §1, §2

[4] = target: T4, recombinant human (rh) Endoglin ectodomain (residues 1-586) containing C-terminal 6xHis tag (human, UniProt P17813 26-586); experiment: BLI (Octet QK), purified MAb on Protein-G biosensor, sEng 1-586 6xHis 50 nM in solution
T4 construct: range 1-586; Purified from HEK-293 cells; the stated range 1-586 includes the signal peptide; also called purified sEng antigen; sEng
T4 sequence: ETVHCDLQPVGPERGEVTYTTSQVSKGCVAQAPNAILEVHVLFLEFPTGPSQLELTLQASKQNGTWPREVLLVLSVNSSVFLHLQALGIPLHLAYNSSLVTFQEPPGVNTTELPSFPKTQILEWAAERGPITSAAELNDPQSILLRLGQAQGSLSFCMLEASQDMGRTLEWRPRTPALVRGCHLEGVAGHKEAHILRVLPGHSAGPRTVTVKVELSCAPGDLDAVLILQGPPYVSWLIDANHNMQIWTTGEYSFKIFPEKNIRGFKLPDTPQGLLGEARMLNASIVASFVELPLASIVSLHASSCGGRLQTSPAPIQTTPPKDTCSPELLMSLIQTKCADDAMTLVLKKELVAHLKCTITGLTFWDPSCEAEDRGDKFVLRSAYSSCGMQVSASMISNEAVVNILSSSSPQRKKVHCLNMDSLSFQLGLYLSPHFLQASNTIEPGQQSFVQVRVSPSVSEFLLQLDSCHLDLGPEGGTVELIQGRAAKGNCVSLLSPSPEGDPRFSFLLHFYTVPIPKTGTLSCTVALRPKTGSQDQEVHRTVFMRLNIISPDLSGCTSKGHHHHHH
Experimental: Materials: Kinetics buffer—PBS solution containing 0.1% BSA and 0.05% Tween-20. Anti-sEng antibodies were purified from ascites of mice injected with hybridoma cells by Protein-G chromatography and buffer exchanged into PBS. For each run, 22 ug/ml (or 150 nM) of each antibody was loaded onto the Protein-G biosensor tip. Purified sEng antigen recombinant human (rh) Endoglin ectodomain (residues 1-586) containing C-terminal 6×His tag was purified from HEK-293 cells by metal affinity chromatography followed by size-exclusion chromatography pre-equilibrated in PBS. For each run, 3 ug/ml (or 50 nM) of sEng was used for association to MAbs bound to Protein-G biosensor tips. Protein-G Biosensor tips were purchased from the instrument supplier.

[5] = target: T5, recombinant human (rh) Endoglin ectodomain (residues 1-586) fused with human IgG1 Fc (human, UniProt P17813 26-586); experiment: BLI (Octet QK), MAb from hybridoma supernatant captured on anti-mouse IgG biosensor, sEng-Fc 170 nM in solution
T5 construct: range 1-586; The stated range 1-586 includes the signal peptide, which would be absent from the secreted protein; also called sEng-Fc; sEng/Fc fusion protein; not shown: human IgG1 Fc
T5 sequence (looked up): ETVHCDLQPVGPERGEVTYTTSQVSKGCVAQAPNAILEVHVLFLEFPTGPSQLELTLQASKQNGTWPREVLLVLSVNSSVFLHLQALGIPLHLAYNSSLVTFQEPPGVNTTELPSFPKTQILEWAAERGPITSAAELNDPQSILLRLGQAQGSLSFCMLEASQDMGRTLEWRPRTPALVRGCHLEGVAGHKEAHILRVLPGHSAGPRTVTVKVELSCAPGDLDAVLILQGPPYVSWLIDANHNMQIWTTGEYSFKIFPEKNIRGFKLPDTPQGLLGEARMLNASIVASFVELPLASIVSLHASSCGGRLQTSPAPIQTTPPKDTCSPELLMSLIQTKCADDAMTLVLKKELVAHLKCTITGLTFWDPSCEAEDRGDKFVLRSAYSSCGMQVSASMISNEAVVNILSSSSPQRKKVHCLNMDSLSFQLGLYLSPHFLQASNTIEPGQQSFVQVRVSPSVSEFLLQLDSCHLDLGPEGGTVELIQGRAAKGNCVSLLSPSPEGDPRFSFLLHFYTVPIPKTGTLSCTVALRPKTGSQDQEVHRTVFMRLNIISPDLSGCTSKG
Experimental: Materials: Kinetics buffer—PBS solution containing 0.1% BSA and 0.05% Tween-20 was used as the kinetics buffer. Test samples—culture supernatants from top 21 hybridoma clones with the strongest signals for binding to the sEng-Fc antigen as determined by ELISA. sEng antigen—recombinant human (rh) Endoglin ectodomain (residues 1-586) fused with human IgG1 Fc, diluted to 170 nM (30 ug/ml) with kinetics buffer. Biosensors—streptavidin biosensors, preloaded with biotinylated sheep anti-mouse IgG.
Binding affinities were determined using the ForteBio label-free Octet QK BLI system using the following protocol: [0237] i. Condition: Immerse biosensor tips in 200 uL of kinetics buffer for >10 min. [0238] ii. Baseline 1: Immerse biosensors in fresh culture medium for 1 min. [0239] iii. Load: Immerse biosensors in culture supernatant samples containing MAbs for 3 min. [0240] iv. Baseline: Immerse biosensors in kinetics buffer for 1 min. [0241] v. Binding/Association: Incubate biosensors with sEng-Fc Antigen for 5 min. [0242] vi. Dissociation: Incubate biosensors in kinetics buffer for 5 min.
Response signals (nm shifts) were used to calculate Kd values for the different antibodies.

B1: chimeric anti-sEng antibody cENG10 (antibody, human IgG1, kappa, N297Q, V domains shown)
VH: EVQLEQSGPEVVKPGTSVKISCKTSGYTITEHTLHWIKQNQGKSLEWIGGINFDNGGTTYRQKFKDKATLTVDKSSSTAFMELRSLTSDDSAVYFCARRAYYYGSAFDYWGQGTTLTVSS
VL: ENVLTQSPAIMSASLGEKVTMTCRASSSVNYVYWYQQKSDASPKLWIYYTSNLAPGVPARFSGSGSGNSYSLTISSMEGEDAATYYCQQFISFPYTFGGGTKLEIKR
notes: Murine MAb 210 variable regions on human IgG1 / kappa constant regions; also called αEng; cENG10 (CHO-derived)
- EC50 (read off the curve) [1]: ~3 nM
- binding result [2]: no binding
- binding result [3]: no binding (tested: 20 nM)

B2: MAb 210 (antibody, V domains shown)
VH: EVQLEQSGPEVVKPGTSVKISCKTSGYTITEHTLHWIKQNQGKSLEWIGGINFDNGGTTYRQKFKDKATLTVDKSSSTAFMELRSLTSDDSAVYFCARRAYYYGSAFDYWGQGTTLTVSS
VL: ENVLTQSPAIMSASLGEKVTMTCRASSSVNYVYWYQQKSDASPKLWIYYTSNLAPGVPARFSGSGSGNSYSLTISSMEGEDAATYYCQQFISFPYTFGGGTKLEIK
notes: Murine monoclonal antibody from hybridoma; also called lead antibody
- Kd [4]: 2.2 nM
- Kd [5]: 0.61 nM
